The values that follow come from US20160244525A1.

In experiment [1] the target is FGFR3-IIIb (human). Briefly: SPR.
For a further experiment, the target named is FGFR3-D2 (human) (UniProt P22607). The experiment can be described thus: SPR (Biacore). In general terms: Surface plasmon resonance follows binding to a sensor surface in real time, without labels.
The target of experiment [2] is FGFR3-IIIb (D2D3) (human). Briefly: SPR (Biacore).
In experiment [3] the target is FGFR3-IIIb (human). Briefly: SPR (Biacore T100), IgG captured by anti-human Fc, FGFR flowed.
For experiment [4], the target named is FGFR3-IIIb (human). The experiment can be described thus: blocking ELISA: FGFR3-IIIb-Fc captured on an anti-human Fc plate, antibody titrated, FGF-1 (with heparin) is the blocked ligand, bound FGF-1 read as OD450.

Chain of FGFR3-IIIb (human) (chain, as listed by the source limits assumed): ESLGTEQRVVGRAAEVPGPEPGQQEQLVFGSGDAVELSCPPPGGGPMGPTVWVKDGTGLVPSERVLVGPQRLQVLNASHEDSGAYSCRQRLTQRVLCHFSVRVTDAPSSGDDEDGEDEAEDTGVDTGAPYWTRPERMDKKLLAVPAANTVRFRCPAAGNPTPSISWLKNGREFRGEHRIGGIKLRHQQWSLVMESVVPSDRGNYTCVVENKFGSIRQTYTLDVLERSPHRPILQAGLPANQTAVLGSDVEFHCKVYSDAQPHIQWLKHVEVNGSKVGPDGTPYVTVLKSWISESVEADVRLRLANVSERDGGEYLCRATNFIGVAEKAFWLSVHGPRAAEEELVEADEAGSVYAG
Chain of R3Mab (antibody) (VH): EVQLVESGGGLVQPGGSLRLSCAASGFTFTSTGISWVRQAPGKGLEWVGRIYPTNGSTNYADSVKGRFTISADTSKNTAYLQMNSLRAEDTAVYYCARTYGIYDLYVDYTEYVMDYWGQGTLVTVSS
Chain of R3Mab (antibody) (VL): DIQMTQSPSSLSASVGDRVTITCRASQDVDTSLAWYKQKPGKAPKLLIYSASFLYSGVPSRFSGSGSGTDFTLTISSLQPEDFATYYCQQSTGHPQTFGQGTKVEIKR
Chain of FGFR3-IIIb (D2D3) (human) (chain, as listed by the source limits assumed): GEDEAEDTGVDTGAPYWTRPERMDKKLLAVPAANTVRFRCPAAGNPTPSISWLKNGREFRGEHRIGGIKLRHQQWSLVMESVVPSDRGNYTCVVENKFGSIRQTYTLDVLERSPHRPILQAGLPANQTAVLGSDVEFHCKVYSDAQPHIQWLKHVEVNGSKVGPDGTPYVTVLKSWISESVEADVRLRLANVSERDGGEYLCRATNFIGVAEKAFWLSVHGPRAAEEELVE
Chain of FGFR3-D2 (human) (P22607 150-248 limits assumed): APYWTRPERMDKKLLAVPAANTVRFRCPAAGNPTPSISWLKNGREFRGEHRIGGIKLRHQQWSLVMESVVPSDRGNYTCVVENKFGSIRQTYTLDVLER

With R3Mab (antibody), the equilibrium dissociation constant (Kd) was found to be 0.24 nM with FGFR3-IIIb (human) [1], 0.26 nM with FGFR3-D2 (human), 0.24 nM in experiment [2] and 0.24 nM with FGFR3-IIIb (human) [3]. Besides, in the experiment with FGFR3-IIIb (human) [4], the IC50 (read off the curve) was in the range of 1 to 2 nM.

What is called Kd is the free concentration of one partner at which half of the binding sites on the other are occupied at equilibrium, for simple one-to-one binding.
